# Test: soluble on expression in E. coli; label from the status in PepcDB or PDB records
row,Sequence,soluble on expression in E. coli
1,AHHHHHHGSIPIAKPLIGEEEINAVIEVLKSGMLAHGKEVEAFEREFASYIGVKHGIAVVNGTAALDIALKALKIKPGDEIITTPFTFIASANAILFQGAKPVFADIDPKTYNLDPDEVLEKINEKTKAIIVVHLYGQPADMKAFKEIAEDYKLYLIEDCAQAHGAEFEGQKVGTFGDIAAFSFYPTKNMTTGEGGMVLTNDDELARRARLIRNHGQTEKYLHEELGYNLRMTNIAAALGRVQLRKLDKWNEIRIENAELLTKGIKRIKGLTPPYVDKRVKHVFHQYVIRVEDDFPLTRDELREKLMEKGIGTAVHYPMPVHHQPLYQRLGYSKDCCPNAIEASKRVLSLPVHPAVSKEDINYIIRTLEELG,not soluble
2,DEICKNQYLYRINQENYVLFSFDIFDTLISRNIAKPSAVFLIMKQKMRNMDFPLNLVKNFDRIRVEVEQYYYRNVCKNKYEDTNFDEIYNLLQQNFSLSFQQKEELMKLEINTEKETLYPIKKNIELVEELIKNEKRVVLISDMYFSSSIIRTFLNKFSPIFNNIPIYMSSEFRLKKNSGNLFKAILNLEKVDPKKWIHCGDNWVGDYLKPSNLEISTNFYINQLLPYEEFALNRNSLDMDLQKIIGISKKIR,not soluble
3,METKILYQKVSADLKRRILDGDYEVGGLIPSEGELERYYQVSKITIRKAVEVLVSEGYLEKKSGIGTRVISNDLFNKLTQTQSFTATVGQQGKLTKELIKIERVPAVPALLPSESQGTMLRIKRRYLLDGKPFAVVDHYLPNTLVPTKLTALRHRSLYKILQENGQTITHFQDKFSAVTLADSERALLESQTPLAIRRERKGYDGHQRLVEFSIATYQTDVVPYQINYDVL,not soluble
4,MGSDKIHHHHHHMEKFKGALVVGALRLFALLPWRAVQGVGAGIGWLMWKLPNRSREVVRINLSKCFPELSETELEKLVGQSLMDIGRTLTESACAWIWPPEKSLRYIREVEGMEVLEEALASGDGLVGITSHLGNWEVLNHFYCSYAKPIIFYRPPKLKAVDELLKKQRVQLGNRVAPSTPEGILSVIKEVKKGGCVGIPADPEPARTAGLFVPYLGTTALISKFVPQLLSRGKARGVFFHAVRLPDGSGYKVILEAAPADMYDKDLEVSVAAMSRELAKYVRAYPSQYMWSMKRFKNRPDGEKKWY,not soluble
5,MASKSRILQLKGTGLKKVPDEIEPLADVLRNLELSENKIREIPIFIGQFSQLKQLHLANNCLEFLPDELGSMKKLEILNLAGNKLKALPDTIVGCTDLKTIDLSSNVFTVFPVAVIGCLQLDILNLNGNQIESLPDDISNLKVIELSLNQNRLSSLNPSNLAKTTRLRTLRLDENCLEKSEFTRDLLESSTISVMSYDGNRFQLKDFQDLPGYDAYQERFTATKRKI,not soluble
6,MPITPPLNIISPKLYPNEQWNESEALGAITWLWYQSPTHRQVPIVEMMTYILPVLKNGQFALFCKGTQPIGYISWAYFDEVAQAHYLESDRHLRDNSDWNCGDNIWLIQWFAPLGHSHQMRSAVRQLFPSTTVRALYHKGSDKGLRILTFKT,not soluble
7,MAFICPEEIEAYAEEHSSELHPILEELVEFTYKNTDLPQMMVGRAEGNFLKMLVEISGAKRVLEIGTFTGFSALMMAQGLPEDGKLTTIEVNPEYAQMAKSFIERAPWGKKIEVIVGDARKVLEEFKKESFDFIFIDADKSSYPYYYEKCLELLKKGRLMAIDNALWEGKVLEPDDNRSKAIARMNEMIKEDPRVEKVLLTVRDGIFLVRKI,soluble
8,MGSDKIHHHHHHMTMQPKYRELLLDEDVRRWFENLKAKSVLTATVALRNLGHYCELTGTTPHGILNKARANEKDFRYEFTDFVRKMEKEGKAGSYIARFKKVILSWLKFNDIRLQLTVNIAGENETPTIVNERVPSKEELARILRKATSRGRVAIAIMAFSGLRPESLGDYEGTDGLRLGDLKELKLSDEIQFDKIPATVMVKSKLSKARHHYFSFIGEEGTTYIREYLDERRKQGEELTYESPLLQFDVRGVKKNAFLRTTLVTRDIREAIEQAGLKMRPYVLRAYFSTALDIAESKGLISHPWRQFIMGHKGDIEARYSTNKRLPPDIIDEMRESYNKCTKFLETRISDVSEENARLYLQQQLLSAVGYRQDEIDKMNLAETSTEDFQKLLRDKVAGAMASNGSKQRLVSMNEIEKLLGEGYEFQAVLPNGKAIMKMPF,not soluble
9,MAHHHHHHVSASPPQRDRGSPPTRPLSEPQDVDAPAAGTVQALRQAVEAQEACVRLLRARQAAREALLRHTRRLLTADDSIEWPGSVEQLVRQVEASLHKLQQAHSEAAAPAATTADNVAPTSAPSRSPRNAAGDADPSADPLARIFHSGVEAQLAAVAEPPHTLPASTLASRSSTAKRRKEAGESGLTNAVSTTSPPPGGPFPPRSAAMTALLARSASRQEAGHAAMLAALSALELSLMSNSGATEVGRDVHNAEPAWLRQVDSDSANDDDAAPEEQQQEKEGNRGDIASSDYSDDFECGSSTSSGADD,soluble
10,GPGSMVLIECKRLPKDEYSKDYDVFLVSIPGVTNIGEATDVLQQMRNTRVRIKWMMAAAKQLAKDFCSEEQQHHLLGPVADAERYMSLERAERRLTCTQKELDDLVDAFKGGAMILFPAECSGTDAVKRLAQLLDDDNTTDTERSKAHRLLSIIDDGATTEDILQGVATMWWSGKQLDRAADFTKYVGKNEKTKITVKLTAKDAPAPPREPALDAKAQSELMAYYFRKQEEMKKMIEDEDLSYGNSAWANPQGLKSQLHGFDSVKFKPG,soluble
11,MGSDKIHHHHHHMNRTQLSQLAVLSAVAAHGSFRGAAKELGIAPSAVSHAVGSLEASLGVRLLARTTRSVAATEEGKRLLERLRPALDDIAEALQRAAEARDRPAGKLRITAPRFAADLILAPRLGDFLGRYPDTVLEIANEDGFTNIVEEGYDAGIRLGESLEADMVAVKVGPELKSAVVAAPSYFERFQRPRHPRDLAGHRCIRRRFSNGTIYRWEFEKEGEELTVSVNGPLILGEDRPIIEAATGGAGLAYLFEPRVSGYVAEGKLVRVLEDWCAPYAGPFLYYPTRRLMRPALRAFIDFFRHSG,not soluble
12,MSLAIQLGKDYTMLSTPQPVADPKKVEVIEFFSYHCIHCYDDDPAFNAWSKTLPADVSFRKEQIVWQKSMEGFARMFATFNATGTFDKLHRAAFDAQIKQRVDLSKPEQFTGWIKQQKGVDSAKLLQTYNSFGINAQVARATKITRDYQIQGTPTVIVNGKYVVVTATPERMIQVMNELVAKAREGHHHHHH,soluble
13,SRGMTPGSRLIDYQLIDSTEELAAILGCGHPSSIHKITRVRLANDIPMAIESSHIPFELAGELNESHFQSSIYDHIERYNSIPISRAKQELEPSAATTEEANILGIQKGAPVLLIKRTTYLQNGTAFEHAKSVYRGDRYTFVHYMDRLS,not soluble
14,MTIEKEIEGLIHKTNKDLLNENANKDSRVFPTQRDLMAGIVSKHIAKNMVPSFIMKAHESGIIHVHDIDYSPALPFTNCCLVDLKGMLENGFKLGNAQIETPKSIGVATAIMAQITAQVASHQYGGTTFANVDKVLSPYVKRTYAKHIEDAEKWQIADALNYAQSKTEKDVYDAFQAYEYEVNTLFSSNGQTPFVTITFGTGTDWTERMIQKAILKNRIKGLGRDGITPIFPKLVMFVEEGVNLYKDDPNYDIKQLALECASKRMYPDIISAKNNKAITGSSVPVSPMGCRSFLSVWKDSTGNEILDGRNNLGVVTLNLPRIALDSYIGTQFNEQKFVELFNERMDLCFEALMCRISSLKGVKATVAPILYQEGAFGVRLKPDDDIIELFKNGRSSVSLGYIGIHELNILVGRDIGREILTKMNAHLKQWTERTGFAFSLYSTPAENLCYRFCKLDTEKYGSVKDVTDKGWYTNSFHVSVEENITPFEKISREAPYHFIATGGHISYVELPDMKNNLKGLEAVWDYAAQHLDYFGVNMPVDKCFTCGSTHEMTPTENGFVCSICGETDPKKMNTIRRTCAYLGNPNERGFNLGKNKEIMHRVKHQ,soluble
15,MGSDKIHHHHHHMTPIPKTSVPKTSVPTTPEPIRTNIPTALGKCLSLCLCLLLPLTQAWAETPANADVTASDNAIIAGHEFSHDSSEFKTPRRYMVSLPEGYHGNTRHYPVLYVVDADFQFQHVSALALHLARMGKIAPMIVVGIANQGQSDYLYTTTWKSDEGEAFGGADTFYRYLAKELIPTIDKQFRTNPHKALAGYSLGGLFTLYAMTQANSPFDAYLAMSPSVWYDKMHYIELLKQRLQKSPIEAPLFLTLANEQEMGVDELVTALKGYDAQKIHWQFKQYPSENHFTTALPALNDGLLFLSPDYGLDGSDMLALGDYRAVLDYFAKRKANWAGFHIEWLQAYQFGKYLFWSKQLDKLDGILAAVKQEFPDSLTIVTVQVAKGFNVKGDGARAKALLDSVAKEGEASPYWHREMSLYYQSQGDEANAQRHQQKALALATQYRLNTWELWELQ,not soluble

# From the DeepSol protein solubility set
